B1: TRIM6: human RING type E3 ligase expressed from lentiviral vector (protein, UniProt Q9C030 1-488, looked up)
Tripartite motif-containing …: MTSPVLVDIREEVTCPICLELLTEPLSIDCGHSFCQACITPNGRESVIGQEGERSCPVCQTSYQPGNLRPNRHLANIVRRLREVVLGPGKQLKAVLCADHGEKLQLFCQEDGKVICWLCERSQEHRGHHTFLVEEVAQEYQEKFQESLKKLKNEEQEAEKLTAFIREKKTSWKNQMEPERCRIQTEFNQLRNILDRVEQRELKKLEQEEKKGLRIIEEAENDLVHQTQSLRELISDLERRCQGSTMELLQDVSDVTERSEFWTLRKPEALPTKLRSMFRAPDLKRMLRVCRELTDVQSYWVDVTLNPHTANLNLVLAKNRRQVRFVGAKVSGPSCLEKHYDCSVLGSQHFSSGKHYWEVDVAKKTAWILGVCSNSLGPTFSFNHFAQNHSAYSRYQPQSGYWVIGLQHNHEYRAYEDSSPSLLLSMTVPPRRVGVFLDYEAGTVSFYNVTNHGFPIYTFSKYYFPTTLCPYFNPCNCVIPMTLRRPSS
B2: TRIM4: human RING type E3 ligase expressed from lentiviral vector (protein, UniProt Q9C037 1-500, looked up)
E3 ubiquitin-protein ligase …: MEAEDIQEELTCPICLDYFQDPVSIECGHNFCRGCLHRNWAPGGGPFPCPECRHPSAPAALRPNWALARLTEKTQRRRLGPVPPGLCGRHWEPLRLFCEDDQRPVCLVCRESQEHQTHAMAPIDEAFESYRTGNFDIHVDEWKRRLIRLLLYHFKQEEKLLKSQRNLVAKMKKVMHLQDVEVKNATQWKDKIKSQRMRISTEFSKLHNFLVEEEDLFLQRLNKEEEETKKKLNENTLKLNQTIASLKKLILEVGEKSQAPTLELLQNPKEVLTRSEIQDVNYSLEAVKVKTVCQIPLMKEMLKRFQVAVNLAEDTAHPKLVFSQEGRYVKNTASASSWPVFSSAWNYFAGWRNPQKTAFVERFQHLPCVLGKNVFTSGKHYWEVESRDSLEVAVGVCREDVMGITDRSKMSPDVGIWAIYWSAAGYWPLIGFPGTPTQQEPALHRVGVYLDRGTGNVSFYSAVDGVHLHTFSCSSVSRLRPFFWLSPLASLVIPPVTDRK
B3: TRIM8: human RING type E3 ligase expressed from lentiviral vector (protein, UniProt Q9BZR9 1-551, looked up)
E3 ubiquitin-protein ligase …: MAENWKNCFEEELICPICLHVFVEPVQLPCKHNFCRGCIGEAWAKDSGLVRCPECNQAYNQKPGLEKNLKLTNIVEKFNALHVEKPPAALHCVFCRRGPPLPAQKVCLRCEAPCCQSHVQTHLQQPSTARGHLLVEADDVRAWSCPQHNAYRLYHCEAEQVAVCQYCCYYSGAHQGHSVCDVEIRRNEIRKMLMKQQDRLEEREQDIEDQLYKLESDKRLVEEKVNQLKEEVRLQYEKLHQLLDEDLRQTVEVLDKAQAKFCSENAAQALHLGERMQEAKKLLGSLQLLFDKTEDVSFMKNTKSVKILMDRTQTCTSSSLSPTKIGHLNSKLFLNEVAKKEKQLRKMLEGPFSTPVPFLQSVPLYPCGVSSSGAEKRKHSTAFPEASFLETSSGPVGGQYGAAGTASGEGQSGQPLGPCSSTQHLVALPGGAQPVHSSPVFPPSQYPNGSAAQQPMLPQYGGRKILVCSVDNCYCSSVANHGGHQPYPRSGHFPWTVPSQEYSHPLPPTPSVPQSLPSLAVRDWLDASQQPGHQDFYRVYGQPSTKHYVTS
B4: TRIM2: human RING type E3 ligase expressed from lentiviral vector (protein, UniProt Q9C040 1-744, looked up)
Tripartite motif-containing …: MASEGTNIPSPVVRQIDKQFLICSICLERYKNPKVLPCLHTFCERCLQNYIPAHSLTLSCPVCRQTSILPEKGVAALQNNFFITNLMDVLQRTPGSNAEESSILETVTAVAAGKPLSCPNHDGNVMEFYCQSCETAMCRECTEGEHAEHPTVPLKDVVEQHKASLQVQLDAVNKRLPEIDSALQFISEIIHQLTNQKASIVDDIHSTFDELQKTLNVRKSVLLMELEVNYGLKHKVLQSQLDTLLQGQESIKSCSNFTAQALNHGTETEVLLVKKQMSEKLNELADQDFPLHPRENDQLDFIVETEGLKKSIHNLGTILTTNAVASETVATGEGLRQTIIGQPMSVTITTKDKDGELCKTGNAYLTAELSTPDGSVADGEILDNKNGTYEFLYTVQKEGDFTLSLRLYDQHIRGSPFKLKVIRSADVSPTTEGVKRRVKSPGSGHVKQKAVKRPASMYSTGKRKENPIEDDLIFRVGTKGRNKGEFTNLQGVAASTNGKILIADSNNQCVQIFSNDGQFKSRFGIRGRSPGQLQRPTGVAVHPSGDIIIADYDNKWVSIFSSDGKFKTKIGSGKLMGPKGVSVDRNGHIIVVDNKACCVFIFQPNGKIVTRFGSRGNGDRQFAGPHFAAVNSNNEIIITDFHNHSVKVFNQEGEFMLKFGSNGEGNGQFNAPTGVAVDSNGNIIVADWGNSRIQVFDGSGSFLSYINTSADPLYGPQGLALTSDGHVVVADSGNHCFKVYRYLQ
B5: CHFR: human RING type E3 ligase expressed from lentiviral vector (protein, UniProt Q96EP1 1-664, looked up)
E3 ubiquitin-protein ligase …: MERPEEGKQSPPPQPWGRLLRLGAEEGEPHVLLRKREWTIGRRRGCDLSFPSNKLVSGDHCRIVVDEKSGQVTLEDTSTSGTVINKLKVVKKQTCPLQTGDVIYLVYRKNEPEHNVAYLYESLSEKQGMTQESFEANKENVFHGTKDTSGAGAGRGADPRVPPSSPATQVCFEEPQPSTSTSDLFPTASASSTEPSPAGRERSSSCGSGGGGISPKGSGPSVASDEVSSFASALPDRKTASFSSLEPQDQEDLEPVKKKMRGDGDLDLNGQLLVAQPRRNAQTVHEDVRAAAGKPDKMEETLTCIICQDLLHDCVSLQPCMHTFCAACYSGWMERSSLCPTCRCPVERICKNHILNNLVEAYLIQHPDKSRSEEDVQSMDARNKITQDMLQPKVRRSFSDEEGSSEDLLELSDVDSESSDISQPYVVCRQCPEYRRQAAQPPHCPAPEGEPGAPQALGDAPSTSVSLTTAVQDYVCPLQGSHALCTCCFQPMPDRRAEREQDPRVAPQQCAVCLQPFCHLYWGCTRTGCYGCLAPFCELNLGDKCLDGVLNNNSYESDILKNYLATRGLTWKNMLTESLVALQRGVFLLSDYRVTGDTVLCYCCGLRSFRELTYQYRQNIPASELPVAVTSRPDCYWGRNCRTQVKAHHAMKFNHICEQTRFKN
B6: TRIM1: human RING type E3 ligase expressed from lentiviral vector (protein, UniProt Q9UJV3 1-735, looked up)
Probable E3 ubiquitin-protein …: MGESPASVVLNASGGLFSLKMETLESELTCPICLELFEDPLLLPCAHSLCFSCAHRILVSSCSSGESIEPITAFQCPTCRYVISLNHRGLDGLKRNVTLQNIIDRFQKASVSGPNSPSESRRERTYRPTTAMSSERIACQFCEQDPPRDAVKTCITCEVSYCDRCLRATHPNKKPFTSHRLVEPVPDTHLRGITCLDHENEKVNMYCVSDDQLICALCKLVGRHRDHQVASLNDRFEKLKQTLEMNLTNLVKRNSELENQMAKLIQICQQVEVNTAMHEAKLMEECDELVEIIQQRKQMIAVKIKETKVMKLRKLAQQVANCRQCLERSTVLINQAEHILKENDQARFLQSAKNIAERVAMATASSQVLIPDINFNDAFENFALDFSREKKLLEGLDYLTAPNPPSIREELCTASHDTITVHWISDDEFSISSYELQYTIFTGQANFISKSWCSWGLWPEIRKCKEAVSCSRLAGAPRGLYNSVDSWMIVPNIKQNHYTVHGLQSGTRYIFIVKAINQAGSRNSEPTRLKTNSQPFKLDPKMTHKKLKISNDGLQMEKDESSLKKSHTPERFSGTGCYGAAGNIFIDSGCHYWEVVMGSSTWYAIGIAYKSAPKNEWIGKNASSWVFSRCNSNFVVRHNNKEMLVDVPPHLKRLGVLLDYDNNMLSFYDPANSLHLHTFDVTFILPVCPTFTIWNKSLMILSGLPAPDFIDYPERQECNCRPQESPYVSGMKTCH
B7: RNF38: human RING type E3 ligase expressed from lentiviral vector (protein, UniProt Q9H0F5 1-515, looked up)
E3 ubiquitin-protein ligase …: MACKISPGANSASLPGHPNKVICERVRLQSLFPLLPSDQNTTVQEDAHFKAFFQSEDSPSPKRQRLSHSVFDYTSASPAPSPPMRPWEMTSNRQPPSVRPSQHHFSGERCNTPARNRRSPPVRRQRGRRDRLSRHNSISQDENYHHLPYAQQQAIEEPRAFHPPNVSPRLLHPAAHPPQQNAVMVDIHDQLHQGTVPVSYTVTTVAPHGIPLCTGQHIPACSTQQVPGCSVVFSGQHLPVCSVPPPMLQACSVQHLPVPYAAFPPLISSDPFLIHPPHLSPHHPPHLPPPGQFVPFQTQQSRSPLQRIENEVELLGEHLPVGGFTYPPSAHPPTLPPSAPLQFLTHDPLHQEVSFGVPYPPFMPRRLTGRSRYRSQQPIPPPPYHPSLLPYVLSMLPVPPAVGPTFSFELDVEDGEVENYEALLNLAERLGEAKPRGLTKADIEQLPSYRFNPNNHQSEQTLCVVCMCDFESRQLLRVLPCNHEFHAKCVDKWLKANRTCPICRADASEVHRDSE
B8: RNF113: human RING type E3 ligase expressed from lentiviral vector (protein, UniProt O15541 2-343, looked up)
E3 ubiquitin-protein ligase …: AEQLSPGKAVDQVCTFLFKKPGRKGAAGRRKRPACDPEPGESGSSSDEGCTVVRPEKKRVTHNPMIQKTRDSGKQKAAYGDLSSEEEEENEPESLGVVYKSTRSAKPVGPEDMGATAVYELDTEKERDAQAIFERSQKIQEELRGKEDDKIYRGINNYQKYMKPKDTSMGNASSGMVRKGPIRAPEHLRATVRWDYQPDICKDYKETGFCGFGDSCKFLHDRSDYKHGWQIERELDEGRYGVYEDENYEVGSDDEEIPFKCFICRQSFQNPVVTKCRHYFCESCALQHFRTTPRCYVCDQQTNGVFNPAKELIAKLEKHRATGEGGASDLPEDPDEDAIPIT
B9: RNF214: human RING type E3 ligase expressed from lentiviral vector (protein, UniProt Q8ND24 2-703, looked up)
RING finger protein 214: AASEVAGVVANAPSPPESSSLCASKSDEGLPDGLSTKDSAQKQKNSPLLSVSSQTITKENNRNVHLEHSEQNPGSSAGDTSAAHQVVLGENLIATALCLSGSGSQSDLKDVASTAGEEGDTSLRESLHPVTRSLKAGCHTKQLASRNCSEEKSPQTSILKEGNRDTSLDFRPVVSPANGVEGVRVDQDDDQDSSSLKLSQNIAVQTDFKTADSEVNTDQDIEKNLDKMMTERTLLKERYQEVLDKQRQVENQLQVQLKQLQQRREEEMKNHQEILKAIQDVTIKREETKKKIEKEKKEFLQKEQDLKAEIEKLCEKGRREVWEMELDRLKNQDGEINRNIMEETERAWKAEILSLESRKELLVLKLEEAEKEAELHLTYLKSTPPTLETVRSKQEWETRLNGVRIMKKNVRDQFNSHIQLVRNGAKLSSLPQIPTPTLPPPPSETDFMLQVFQPSPSLAPRMPFSIGQVTMPMVMPSADPRSLSFPILNPALSQPSQPSSPLPGSHGRNSPGLGSLVSPHGPHMPPAASIPPPPGLGGVKASAETPRPQPVDKLEKILEKLLTRFPQCNKAQMTNILQQIKTARTTMAGLTMEELIQLVAARLAEHERVAASTQPLGRIRALFPAPLAQISTPMFLPSAQVSYPGRSSHAPATCKLCLMCQKLVQPSELHPMACTHVLHKECIKFWAQTNTNDTCPFCPTLK

Tested on: coxsackievirus B3 (CVB3-GFP)
Type: cell-based
Conditions: HeLa cells, GFP-positive cells within RFP-positive gate, replicate R1

Molecule	Percent Infected R1 [%]
B1	67.4
B2	67.8
B3	70.1
B4	62.1
B5	87.2
B6	82.1
B7	88.2
B8	92
B9	93.9

Same assay, conditions: HeLa cells, replicate R1

Molecule	Z score R1
B1	−0.27
B2	−0.265
B3	−0.235
B4	−0.337
B5	−0.02
B6	−0.083
B7	−0.01
B8	0.043
B9	0.067

— patent US12104181B2, “Compositions and methods for treating viral infections targeting TRIM7” (THE BOARD OF REGENTS OF THE UNIVERSITY OF TEXAS SYSTEM, priority 2021, dated 2024)
